Assays:
[1] = substrate: C[C@@H]1O[C@@H](O[C@@H]2[C@@H](O)[C@H](OCCc3ccc(O)c(O)c3)O[C@H](COC(=O)/C=C/c3ccc(O)c(O)c3)[C@H]2O)[C@H](O)[C@H](O)[C@H]1O; test: uptake into vacuolar membrane vesicles, HPLC, Lineweaver-Burk; format: biochemical, Rehmannia glutinosa; conditions: vesicles from transfected N. benthamiana protoplasts, 25 mM Tris-MES pH 8.0, 0.4 M sorbitol, 0.1% BSA, 25 °C, 20 min, substrate 20–120 μM
[2] = substrate: C[C@@H]1O[C@@H](O[C@@H]2[C@@H](O)[C@H](OCCc3ccc(O)c(O)c3)O[C@H](CO)[C@H]2OC(=O)/C=C/c2ccc(O)c(O)c2)[C@H](O)[C@H](O)[C@H]1O; test: as above; format: biochemical, Rehmannia glutinosa; conditions: vesicles from transfected N. benthamiana protoplasts, 25 mM Tris-MES pH 8.0, 0.4 M sorbitol, 0.1% BSA, 25 °C, 20 min, substrate 20–120 μM

B1: RgMATE6 (Rehmannia glutinosa) (protein)
chain: MEDNSKQPLLSYEEEEEEDQVPDLVSVPSRFSFQRLSNFSFFSSFVADDEDIAPIETFSEFMSAFKDESGKLWFLAGPAIFTSLCQYSLGAFTQTFAGHVGTLELAAFSSVIAGLSLGVMLGMGSAVETLCGQAFGAGQHDMLGIYLQRSWIILLATGFILMFLYIFALPFLLVIGQTESISRVAGKLALWMIPQLFAYALNFPTAKFLQAQSKIMAMAWISAAGLGLHVLFSWLLMLKLGWGMAGGAAVLDGSWWFIVIAQLIYIFSGTCGKAWPGFSLRAFSNLWGFVRLSVASAVMMCLETWYFMALVLFAGYLKDAEVAVAALSVCTNILGWTNTIAVGFNAAISVRVSNELGASRPRTAKFSVVVMVISAFLIGLIVSILLLIFQDQYPSLFSDSLDVKQVVYELTPLLAFSIVVNSIQPALSGVAIGAGWQALIAYVNIVCYYVFGVPLGLILGYPLNMGVKGIWYGMVAGTVLQTLILFWIVYRTDWNKEASIAAKRIKYWRGEAEAAKSKGLGEIK
notes: full-length ORF (524 residues, 12 TM helices), C-terminal GFP fusion (pBI121-RgMATE6-GFP), transiently expressed in Nicotiana benthamiana mesophyll protoplasts; vacuolar membrane vesicles
- Km [1]: 121.98 µM
- Km [2]: 35.59 µM
